Measurements as given in patent US20210269501A1.

Molecular target: NKG2D ligands (NKG2DLs) on human TNBC cell lines
Assay: cell-based or functional assay

| Substance | cytotoxicity (overnight luminescence based assay, MDA-MB-231 fLuc) [%] |
| --- | --- |
| NKG2D_41BB_CD3Zeta CAR (receptor) | > 60 |
| NKG2D_CD3Zeta CAR (receptor) | > 60 |
| NKG2D_CD27_CD3Zeta CAR (receptor) | > 60 |
